Assay results reported in article PMC5798601 (Cell, 2017).
Values belong to the molecule of their own block, whether it stands above or below them.

Tests used:
[1] = target: 32P-labeled mtRNAP (Figure 5C; truncation not stated) (human) (UniProt O00411); assay: cross-linking
[2] = target: mtRNAP Δ150;TEFM Δ135 (CTD + linker) (human;human, UniProt O00411;Q96QE5 151-1230;136-360, |); assay: crystal structure
mtRNAP Δ150;TEFM WT = mtRNAP Δ150;TEFM WT (human;human, UniProt O00411;Q96QE5 151-1230;36-360, |); assay: size exclusion chromatography
mtRNAP Δ150;TEFM WT, sequence (O00411 151-1230, stated change not applied, one chain of several): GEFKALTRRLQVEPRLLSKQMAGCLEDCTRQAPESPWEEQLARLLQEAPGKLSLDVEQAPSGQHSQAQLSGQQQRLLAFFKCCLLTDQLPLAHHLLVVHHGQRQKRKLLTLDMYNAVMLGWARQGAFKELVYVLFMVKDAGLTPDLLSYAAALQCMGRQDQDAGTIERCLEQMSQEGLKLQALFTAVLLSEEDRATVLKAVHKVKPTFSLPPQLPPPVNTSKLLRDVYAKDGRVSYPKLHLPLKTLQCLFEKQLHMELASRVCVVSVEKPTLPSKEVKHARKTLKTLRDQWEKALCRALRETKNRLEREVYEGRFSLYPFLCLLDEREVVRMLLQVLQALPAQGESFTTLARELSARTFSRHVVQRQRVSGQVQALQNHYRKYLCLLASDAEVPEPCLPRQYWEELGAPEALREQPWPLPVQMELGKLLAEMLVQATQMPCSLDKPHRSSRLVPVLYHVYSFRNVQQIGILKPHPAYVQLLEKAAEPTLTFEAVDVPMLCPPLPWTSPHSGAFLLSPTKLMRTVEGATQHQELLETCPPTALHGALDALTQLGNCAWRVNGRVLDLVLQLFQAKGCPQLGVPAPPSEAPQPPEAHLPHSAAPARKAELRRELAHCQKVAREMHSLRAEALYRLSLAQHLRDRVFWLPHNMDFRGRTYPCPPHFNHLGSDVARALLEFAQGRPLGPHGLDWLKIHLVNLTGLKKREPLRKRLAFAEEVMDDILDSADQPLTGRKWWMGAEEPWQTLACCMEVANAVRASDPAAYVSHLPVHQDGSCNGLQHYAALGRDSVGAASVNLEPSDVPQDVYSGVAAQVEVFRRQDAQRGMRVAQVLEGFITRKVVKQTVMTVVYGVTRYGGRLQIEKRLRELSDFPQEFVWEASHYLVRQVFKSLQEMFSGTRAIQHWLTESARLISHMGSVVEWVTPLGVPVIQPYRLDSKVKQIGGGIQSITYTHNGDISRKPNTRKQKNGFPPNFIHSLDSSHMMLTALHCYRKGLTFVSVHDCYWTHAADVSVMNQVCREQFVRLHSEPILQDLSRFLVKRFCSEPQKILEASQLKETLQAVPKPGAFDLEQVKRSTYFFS

[3] = target: Δ150 mtRNAP (human mitochondrial RNA polymerase) (human, UniProt O00411 151-1230); assay: crystal structure
Δ150 mtRNAP (human mitochondrial RNA polymerase), sequence (O00411 151-1230, stated change not applied): as the sequence (O00411 151-1230, stated change not applied, one chain of several) above

crystal structure = target: the molecule itself; assay: crystal structure
610Bpa-mtRNAP (human) = 610Bpa-mtRNAP (human) (UniProt O00411); assay: cross-linking
610Bpa-mtRNAP (human), sequence (O00411 42-609): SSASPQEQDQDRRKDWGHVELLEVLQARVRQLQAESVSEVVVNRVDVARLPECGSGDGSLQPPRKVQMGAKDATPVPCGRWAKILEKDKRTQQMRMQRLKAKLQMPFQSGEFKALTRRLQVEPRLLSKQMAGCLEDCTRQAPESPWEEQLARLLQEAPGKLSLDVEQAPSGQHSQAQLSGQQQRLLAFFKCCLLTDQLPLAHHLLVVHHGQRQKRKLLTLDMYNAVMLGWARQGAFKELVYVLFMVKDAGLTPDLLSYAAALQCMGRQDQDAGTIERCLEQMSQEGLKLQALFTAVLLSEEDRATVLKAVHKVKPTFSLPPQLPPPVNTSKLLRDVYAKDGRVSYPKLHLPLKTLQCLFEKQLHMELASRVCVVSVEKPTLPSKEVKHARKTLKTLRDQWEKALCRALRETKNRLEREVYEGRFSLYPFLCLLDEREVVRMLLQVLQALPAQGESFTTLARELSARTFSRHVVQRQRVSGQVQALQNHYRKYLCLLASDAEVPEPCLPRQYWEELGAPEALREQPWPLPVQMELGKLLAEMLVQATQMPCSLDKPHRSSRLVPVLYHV

SEC = target: the molecule itself; assay: SEC

32P-labeled mtRNAP (Figure 5C; truncation not stated) (human), sequence (O00411 42-1230): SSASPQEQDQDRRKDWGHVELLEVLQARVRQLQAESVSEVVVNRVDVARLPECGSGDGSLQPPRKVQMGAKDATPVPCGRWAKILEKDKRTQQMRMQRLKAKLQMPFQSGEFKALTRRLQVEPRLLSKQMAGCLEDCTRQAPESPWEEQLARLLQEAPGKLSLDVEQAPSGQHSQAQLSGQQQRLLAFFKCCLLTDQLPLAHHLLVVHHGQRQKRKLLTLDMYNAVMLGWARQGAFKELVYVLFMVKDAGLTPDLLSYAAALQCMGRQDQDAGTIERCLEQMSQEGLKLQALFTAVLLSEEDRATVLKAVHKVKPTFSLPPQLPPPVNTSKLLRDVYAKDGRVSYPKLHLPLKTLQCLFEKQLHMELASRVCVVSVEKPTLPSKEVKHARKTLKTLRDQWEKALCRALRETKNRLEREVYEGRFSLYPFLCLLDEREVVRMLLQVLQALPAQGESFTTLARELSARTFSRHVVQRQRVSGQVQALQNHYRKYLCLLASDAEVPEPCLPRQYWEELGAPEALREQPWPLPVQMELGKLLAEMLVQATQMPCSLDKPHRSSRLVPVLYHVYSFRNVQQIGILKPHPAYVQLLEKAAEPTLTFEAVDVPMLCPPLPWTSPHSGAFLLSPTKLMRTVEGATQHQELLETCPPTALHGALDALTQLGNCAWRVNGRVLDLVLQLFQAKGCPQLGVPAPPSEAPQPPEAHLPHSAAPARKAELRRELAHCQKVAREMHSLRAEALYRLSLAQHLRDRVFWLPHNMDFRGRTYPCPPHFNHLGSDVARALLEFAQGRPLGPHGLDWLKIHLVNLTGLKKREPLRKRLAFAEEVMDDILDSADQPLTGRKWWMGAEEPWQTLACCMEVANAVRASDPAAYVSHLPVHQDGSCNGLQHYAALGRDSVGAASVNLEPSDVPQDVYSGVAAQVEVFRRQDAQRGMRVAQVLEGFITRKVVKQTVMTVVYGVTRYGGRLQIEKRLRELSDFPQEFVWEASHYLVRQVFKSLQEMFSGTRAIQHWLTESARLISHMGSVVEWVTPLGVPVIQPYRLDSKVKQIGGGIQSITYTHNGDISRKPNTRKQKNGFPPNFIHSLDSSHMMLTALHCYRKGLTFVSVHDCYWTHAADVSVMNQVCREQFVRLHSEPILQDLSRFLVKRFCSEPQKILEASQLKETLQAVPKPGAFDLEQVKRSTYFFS
mtRNAP Δ150;TEFM Δ135 (CTD + linker), sequence (O00411 151-1230, stated change not applied, one chain of several): as the sequence (O00411 151-1230, stated change not applied, one chain of several) above

cross-linking efficiency [1]: > 30%
Molecule: Bpa310 TEFM (from UniProt Q96QE5 36-360) (natural protein)

cross-linking efficiency [1]: > 30%
Molecule: Bpa308 TEFM (from UniProt Q96QE5 36-360) (natural protein)

cross-linking efficiency [1]: > 30%
Molecule: Bpa309 TEFM (from UniProt Q96QE5 36-360) (natural protein)

cross-linking efficiency [1]: > 30%
Molecule: Bpa312 TEFM (from UniProt Q96QE5 36-360) (natural protein)

binding result [3]: binds
B3: Δ135 TEFM (CTD with the inter-domain linker, residues 136-360) (domain or fragment, human, UniProt Q96QE5 136-360, looked up)
chain: PKTGREKRKSPENRFLRKLLKPDIERERLKAVNSIISIVFGTRRIAWAHLDRKLTVLDWQQSDRWSLMRGIYSSSVYLEEISSIISKMPKADFYVLEKTGLSIQNSSLFPILLHFHIMEAMLYALLNKTFAQDGQHQVLSMNRNAVGKHFELMIGDSRTSGKELVKQFLFDSILKADPRVFFPSDKIVHYRQMFLSTELQRVEELYDSLLQAIAFYELAVFDSQP
binding result (crystal structure): binds

The next lines start with the molecule.

B1: EC scaffold NT25HH/TS22HH/RNA14mt (mixed)
DNA 1: GAACATGGTGTAATTATTTCGACGCCAGACGAAC
DNA 2: GTTCGTCTGGCGTGCGCGCCGCTACACCATGTTC
RNA: AGUCUGCGGCGCGC
binding result [2]: binds

B2: cross-linking scaffold NT19HH/TS16HH/RNA14HH (mixed)
DNA 1: CATGGGGTAACTAGTTCGACGCCAGACG
DNA 2: CGTCTGGCGTGATCACGACTACCCCATG
RNA: UGAUGGUAAUGCUCCUGUCGUGAUC
binding result (mtRNAP Δ150;TEFM WT): binds

B4: 32P-labeled TEFM (natural protein)
chain: KSTTPKKITPNVTFCDENAKEPENALDKLFSSEQQASILHVLNTASTKELEAFRLLRGRRSINIVEHRENFGPFQNLESLMNVPLFKYKSTVQVCNSILCPKTGREKRKSPENRFLRKLLKPDIERERLKAVNSIISIVFGTRRIAWAHLDRKLTVLDWQQSDRWSLMRGIYSSSVYLEEISSIISKMPKADFYVLEKTGLSIQNSSLFPILLHFHIMEAMLYALLNKTFAQDGQHQVLSMNRNAVGKHFELMIGDSRTSGKELVKQFLFDSILKADPRVFFPSDKIVHYRQMFLSTELQRVEELYDSLLQAIAFYELAVFDSQP
modifications: 32P-labeled
cross-linking efficiency (610Bpa-mtRNAP (human)): 30%

B5: WT TEFM (human mitochondrial transcription elongation factor) (natural protein, UniProt Q96QE5 36-360, looked up)
chain: KSTTPKKITPNVTFCDENAKEPENALDKLFSSEQQASILHVLNTASTKELEAFRLLRGRRSINIVEHRENFGPFQNLESLMNVPLFKYKSTVQVCNSILCPKTGREKRKSPENRFLRKLLKPDIERERLKAVNSIISIVFGTRRIAWAHLDRKLTVLDWQQSDRWSLMRGIYSSSVYLEEISSIISKMPKADFYVLEKTGLSIQNSSLFPILLHFHIMEAMLYALLNKTFAQDGQHQVLSMNRNAVGKHFELMIGDSRTSGKELVKQFLFDSILKADPRVFFPSDKIVHYRQMFLSTELQRVEELYDSLLQAIAFYELAVFDSQP
stoichiometry N (SEC): 2
